In IntAct's records for PubMed 26053850:

B1: ADP-ribosylation factor-binding protein GGA1 (Homo sapiens), Q9UJY5 (parent)
chain: MEPAMEPETLEARINRATNPLNKELDWASINGFCEQLNEDFEGPPLATRLLAHKIQSPQEWEAIQALTVLETCMKSCGKRFHDEVGKFRFLNELIKVVSPKYLGSRTSEKVKNKILELLYSWTVGLPEEVKIAEAYQMLKKQGIVKSDPKLPDDTTFPLPPPRPKNVIFEDEEKSKMLARLLKSSHPEDLRAANKLIKEMVQEDQKRMEKISKRVNAIEEVNNNVKLLTEMVMSHSQGGAAAGSSEDLMKELYQRCERMRPTLFRLASDTEDNDEALAEILQANDNLTQVINLYKQLVRGEEVNGDATAGSIPGSTSALLDLSGLDLPPAGTTYPAMPTRPGEQASPEQPSASVSLLDDELMSLGLSDPTPPSGPSLDGTGWNSFQSSDATEPPAPALAQAPSMESRPPAQTSLPASSGLDDLDLLGKTLLQQSLPPESQQVRWEKQQPTPRLTLRDLQNKSSSCSSPSSSATSLLHTVSPEPPRPPQQPVPTELSLASITVPLESIKPSNILPVTVYDQHGFRILFHFARDPLPGRSDVLVVVVSMLSTAPQPIRNIVFQSAVPKVMKVKLQPPSGTELPAFNPIVHPSAITQVLLLANPQKEKVRLRYKLTFTMGDQTYNEMGDVDQFPPPETWGSL

Variants of: B1
Settings: with bace1_human BACE1, P56817
Chain of bace1_human BACE1, P56817 (P56817 whole entry): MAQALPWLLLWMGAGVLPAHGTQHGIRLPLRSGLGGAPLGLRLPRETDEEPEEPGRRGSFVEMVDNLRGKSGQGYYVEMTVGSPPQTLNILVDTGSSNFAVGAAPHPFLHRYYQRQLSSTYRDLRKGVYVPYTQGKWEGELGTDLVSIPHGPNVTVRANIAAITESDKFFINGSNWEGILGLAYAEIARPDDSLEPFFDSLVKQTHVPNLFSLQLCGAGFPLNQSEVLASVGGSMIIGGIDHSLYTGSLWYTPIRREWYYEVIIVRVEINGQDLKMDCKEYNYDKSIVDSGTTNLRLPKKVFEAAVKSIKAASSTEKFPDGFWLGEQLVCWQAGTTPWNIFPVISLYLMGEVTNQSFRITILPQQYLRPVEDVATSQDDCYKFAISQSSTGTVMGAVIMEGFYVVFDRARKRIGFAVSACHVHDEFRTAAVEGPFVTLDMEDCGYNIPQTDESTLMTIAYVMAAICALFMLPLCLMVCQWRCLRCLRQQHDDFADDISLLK

| effect of a mutation on the interaction | Variant |
| --- | --- |
| with no effect | S355D |
| with no effect | S355A |
